These results are taken from article PMC6458971.

The test concerns the target AviTagged clade B YU-2 gp140 trimers (HIV-1 clade B, strain YU-2 | not stated). The test can be described thus: SEC. A general note: Size exclusion chromatography separates by hydrodynamic size, large species first.

What is called stoichiometry N is the number of molecules, sites or subunits per partner or assembly. For the substance “AviTagged clade B YU-2 gp140 trimers (domain or fragment)”, the stoichiometry N was found to be 3.
